Laboratory results taken from patent publication WO2001000678A1 (dated 2001).

Biological target: HIV-1 MN viral lysate (native gp120) (HIV-1 isolate MN, UniProt P05877 32-513)
Test: ELISA, biotinylated Fab on viral lysate; reference HIV-1 IIIb lysate

B1: Fab 7 (Fab, V domains shown)
VH: EVQLQESGPGLVKPSETLSLTCTVSGGSISSSSYYWGWIRQPPGKGLEWIGSIYYSGSTYYNPSLKSRVTISVDTSKNQFSLKLSSVTAAYTAVYYCARRCTSGVCYGAFDYWGQGTPVTVSS
VL: DLVMTQSPSFLSASVGDRVTITCRASQGISSYLAWYQQKSGKAPKLLIYGTSILQSGVPSRFSGSGSGTESTLTISSLQPEDFATYYCQQLNSYPITFGQGTRLEIK
- binding relative to the level seen with IIIb: ~50%
